# Experimental data reported in paper PMC3299909 (Molecular Cell, 2012).
# Target: Sec5 (bone marrow-derived macrophages) (mouse (endogenous in bone …, UniProt Q9D4H1 1-924))
# Assay: co-IP
# Sec5 (bone marrow-derived macrophages) (mouse, sequence (Q9D4H1 whole entry): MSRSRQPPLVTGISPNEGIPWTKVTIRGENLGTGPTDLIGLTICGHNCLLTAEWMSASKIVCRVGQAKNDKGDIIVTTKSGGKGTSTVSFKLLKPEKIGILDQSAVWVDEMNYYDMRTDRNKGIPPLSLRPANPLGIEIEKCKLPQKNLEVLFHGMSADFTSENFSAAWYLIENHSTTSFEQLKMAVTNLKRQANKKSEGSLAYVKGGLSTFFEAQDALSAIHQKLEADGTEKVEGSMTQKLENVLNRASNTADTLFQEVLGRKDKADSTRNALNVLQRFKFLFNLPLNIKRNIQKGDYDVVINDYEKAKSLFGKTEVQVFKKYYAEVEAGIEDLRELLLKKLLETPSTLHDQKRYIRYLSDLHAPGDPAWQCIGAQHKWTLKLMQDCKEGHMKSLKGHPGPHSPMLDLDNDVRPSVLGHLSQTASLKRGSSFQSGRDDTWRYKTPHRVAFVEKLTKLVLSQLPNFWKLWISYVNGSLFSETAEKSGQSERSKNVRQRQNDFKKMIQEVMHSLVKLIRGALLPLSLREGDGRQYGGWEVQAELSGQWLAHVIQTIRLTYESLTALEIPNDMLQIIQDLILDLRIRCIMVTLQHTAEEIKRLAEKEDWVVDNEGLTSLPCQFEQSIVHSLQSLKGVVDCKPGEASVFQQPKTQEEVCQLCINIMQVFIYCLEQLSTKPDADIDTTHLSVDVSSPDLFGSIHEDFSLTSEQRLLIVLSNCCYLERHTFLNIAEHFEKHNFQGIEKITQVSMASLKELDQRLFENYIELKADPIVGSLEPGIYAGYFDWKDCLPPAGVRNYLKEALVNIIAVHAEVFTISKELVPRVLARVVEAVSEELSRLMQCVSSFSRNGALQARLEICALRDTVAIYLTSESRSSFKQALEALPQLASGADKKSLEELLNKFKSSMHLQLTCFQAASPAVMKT
binder,measurement,value
"Exo84 (bone marrow-derived macrophages) (natural protein, UniProt Q6PGF7 1-716, looked up) MSDSGASRLRRQLESGGFEARLYVKQLSQQSDGDRDLQEHRQRVQALAEETAQNLKRNVYQNYRQFIETAREISYLESEMYQLSHLLTEQKSSLESIPLALLPAAAAGASAGEDTAGAGPRERGAVQAGFLPGPAGVPREGSGTGEEGKQRTLTTLLEKVEGCRDLLETPGQYLVYNGDLVEYDADHMAQLQRVHGFLMNDCLLVATWLPQRRGMYRYNALYPLDRLAVVNVKDNPPMKDMFKLLMFPESRIFQAENAKIKREWLEVLEETKRALSDKRRREQEEAAAPRAPPPVTSKGSNPFEDEDDEELATPEAEEEKVDLSMEWIQELPEDLDVCIAQRDFEGAVDLLDKLNHYLEDKPSPPPVKELRAKVDERVRQLTEVLVFELSPDRSLRGGPKATRRAVSQLIRLGQCTKACELFLRNRAAAVHTAIRQLRIEGATLLYIHKLCHVFFTSLLETAREFETDFAGTDSGCYSAFVVWARSAMGMFVDAFSKQVFDSKESLSTAAECVKVAKEHCQQLGEIGLDLTFIIHALLVKDIQGALHSYKEIIIEATKHRNSEEMWRRMNLMTPEALGKLKEEMKSCGVSNFEQYTGDDCWVNLSYTVVAFTKQTMGFLEEALKLYFPELHMVLLESLVEIILVAVQHVDYSLRCEQDPEKKAFIRQNASFLYETVLPVVERRFEEGVGKPAKQLQDLRNASRLLRVNPESTTSVV",fold increase of the association in Tipe2-/- cells over wild type cells,~3 fold
